The target in experiment [1] is T1, Human CD27 ECD (ECD 1-173, His6) (human, UniProt P26842 21-193, biotinylated on amine residues (NHS-ester) where used biotinylated).
T1 construct: also called biotinylated human CD27 ECD
Description: single point Fab ELISA. (In general: An ELISA detects its analyte on a solid surface through an enzyme-linked reagent.)

The target of experiment [2] is T1, Human CD27 ECD (ECD 1-173, His6). The experiment is described as follows: Fab ELISA; Fab captured by anti-Fd, biotinylated CD27 ECD at 0.2 nM.
For experiment [3], the target named is T2, Human CD27 ECD truncated (ECD 1-121, cleavage site, His6) (human).
T2 construct: also called human CD27 ECD with His Tag; CD27-His
T2 chain: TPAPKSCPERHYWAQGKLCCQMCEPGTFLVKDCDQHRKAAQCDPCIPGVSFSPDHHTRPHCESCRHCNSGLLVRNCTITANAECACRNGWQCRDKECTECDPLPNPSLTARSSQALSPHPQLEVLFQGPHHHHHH
Description: ProteOn SPR, culture supernatants.

Experiment [4] deals with T2, Human CD27 ECD truncated (ECD 1-121, …). The experiment is described as follows: ProteOn SPR, purified mAb, CD27-His.

The values below come from US20130243795A1 (Janssen / Centocor, published 2013).

Residue numbers refer to the chain shown, from its start.

B1: F18 (Fab, V domains shown)
VH: EVQLLESGGGLVQPGGSLRLSCAASGFTFSSYTMSWVRQAPGKGLEWVSAIDHGGGRTYYPDSVKGRFTISRDNSKNTLYLQMNSLRAEDTAVYYCARHRGNPFDYWGQGTLVTVSS
VL: DIQMTQSPSSLSASVGDRVTITCRASKSVSTSGYSFMHWYQQKPGKAPKLLIYLASNLESGVPSRFSGSGSGTDFTLTISSLQPEDFATYYCQHSRELPWTFGQGTKVEIK
notes: also called H40/L40
For B1, the binding result in experiment [1] is listed as “binds”.

B2: F256 (Fab, V domains shown)
VH: B1 VH with A50Y, D52S, H53S, R57N
VL: B1 VL with L54V, A55G, N57R, E59D, S60Y
notes: also called H39/L137
For B2, the binding result in experiment [1] was “binds”.

B3: F57 (Fab, V domains shown)
VH: B1 VH with R57Q, Y59L
VL: B1 VL
notes: also called H79/L40
B3: in experiment [1], the binding result was “binds”.

B4: F279 (Fab, V domains shown)
VH: B1 VH with A50Y, D52S, H53S, R57N
VL: B1 VL with T31Y, S32V, G33R, Y34W
notes: also called H39/L160
B4: the binding result in experiment [1] was “binds”.

B5: F243 (Fab, V domains shown)
VH: B1 VH with A50Y, D52S, H53S, R57N
VL: B1 VL with L54V, A55G, N57R, L58M, E59A, S60F
notes: also called H39/L124
For the molecule B5, the binding result in experiment [1] is “binds”.

B6: F19 (Fab, V domains shown)
VH: B1 VH with Y59W
VL: B1 VL
notes: also called H41/L40
Consider B6, for which the binding result in experiment [1] was “binds”.

B7: M69-derived Fab with VH H239 (Fab, V domains shown)
VH: EVQLVQSGAEVKKPGESLKISCKGSGYAFSSSWMNWVRQMPGKGLEWMGRIYAGDGDTNYSPSFQGQVTISADKSISTAYLQWSSLKASDTAMYYCARSDYYGDYGFAYWGQGTLVTVSS
VL: DIVMTQSPDSLAVSLGERATINCKASQSVDYAGDSYMNWYQQKPGQPPKLLIYAASNLESGVPDRFSGSGSGTDFTLTISSLQAEDVAVYYCQQSNEDPYTFGQGTKLEIK
notes: clone of library C27H28L2; pairing with parent L35 inferred
As to B7, the “percent binding of the parent” value in experiment [2] is not below 100%.

B8: M69-derived Fab with VH H242 (Fab, V domains shown)
VH: B7 VH with G54N
VL: B7 VL
notes: as for B7
For the molecule B8, in experiment [2], the “percent binding of the parent” value was not below 100%.

B9: M69-derived Fab with VH H240 (Fab, V domains shown)
VH: B7 VH with G54R
VL: B7 VL
notes: as for B7
For B9, the “percent binding of the parent” value in experiment [2] is not below 100%.

B10: M69-derived Fab with VL L256 (Fab, V domains shown)
VH: B7 VH with A53P
VL: B7 VL with Y36W, A54V
notes: clone of library C27L35L2; pairing with parent H28 inferred
On to B10, for which the “percent binding of the parent” value in experiment [2] was not below 100%.

B11: M69-derived Fab with VH H236 (Fab, V domains shown)
VH: B7 VH with A53P, S99A, A108G
VL: B7 VL
notes: clone of library C27H28L3; pairing with the parent L35 light chain is inferred from the library design
For B11, the “percent binding of the parent” value in experiment [2] is not below 100%.

B12: M69-derived Fab with VL L255 (Fab, V domains shown)
VH: B7 VH with A53P
VL: B7 VL with Y36F
notes: clone recovered from the CDR-L1 libraries of L35; pairing with the parent H28 heavy chain inferred
For the molecule B12, in experiment [2], the “percent binding of the parent” value is not below 100%.

B13: M69-derived Fab with VH H243 (Fab, V domains shown)
VH: B7 VH with A53G
VL: B7 VL
notes: as for B7
For B13, in experiment [2], the “percent binding of the parent” value is not below 100%.

B14: M69-derived Fab with VL L257 (Fab, V domains shown)
VH: B7 VH with A53P
VL: B7 VL with Y36W, A54T, Q83L
notes: as for B10
On to B14, for which, in experiment [2], the “percent binding of the parent” value was not below 100%.

B15: M69-derived Fab with VH H237 (Fab, V domains shown)
VH: B7 VH with Y52F, A53V, G54R
VL: B7 VL
notes: as for B7
Take B15: the “percent binding of the parent” value in experiment [2] was not below 100%.

B16: M69-derived Fab with VH H245 (Fab, V domains shown)
VH: B7 VH with G8V, A53S, G54R
VL: B7 VL
notes: as for B7
Regarding B16, the “percent binding of the parent” value in experiment [2] was not below 100%.

B17: M69-derived Fab with VH H241 (Fab, V domains shown)
VH: B7 VH with A53G, G54R
VL: B7 VL
notes: as for B7
Take B17: the “percent binding of the parent” value in experiment [2] is not below 100%.

B18: M69-derived Fab with VL L260 (Fab, V domains shown)
VH: B7 VH with A53P
VL: B7 VL with Y31W, D34H, Y36W, A54T
notes: as for B10
On to B18, for which the “percent binding of the parent” value in experiment [2] is not below 100%.

B19: M69-derived Fab with VL L261 (Fab, V domains shown)
VH: B7 VH with A53P
VL: B7 VL with D34S, Y36F, A54E
notes: as for B10
As for B19, the “percent binding of the parent” value in experiment [2] is not below 100%.

B20: M69-derived Fab with VH H244 (Fab, V domains shown)
VH: B7 VH with A53S
VL: B7 VL
notes: as for B7
On to B20, for which the “percent binding of the parent” value in experiment [2] is not below 100%.

B21: M69-derived Fab with VH H238 (Fab, V domains shown)
VH: B7 VH with A53V
VL: B7 VL
notes: as for B7
As to B21, the “percent binding of the parent” value in experiment [2] was not below 100%.

B22: M159 (antibody, human IgG4, V domains shown)
VH: QVQLVQSGAEVKKPGASVKVSCKASGYAFSSSWMNWVRQAPGQGLEWMGRIYPGDGDTNYNGKFKGRVTMTRDTSTSTVYMELSSLRSEDTAVYYCARSDYYGDYGFAYWGQGTLVTVSS
VL: DIQMTQSPSSLSASVGDRVTITCKASQSVDYAGDSYMNWYQQKPGKAPKLLIYAASNLESGVPSRFSGSGSGTDFTLTISSLQPEDFATYYCQQSNEDPYTFGQGTKVEIK
notes: also called H25,L220; parental mAb
On to B22, for which, in experiment [3], the affinity, expressed as Kd, was 2.23 nM.

B23: M151 (antibody, human IgG4, V domains shown)
VH: B22 VH
VL: B22 VL with T20A, A32Y, G33N, D34S, Y36F
notes: also called H25,L224
The molecule B23 had a Kd in experiment [3] of 1.07 nM. This Kd lies about 2.1-fold lower than the previous one.

B24: M672 (antibody, V domains shown)
VH: B22 VH with P53S, G56A, N61A, G62Q
VL: B22 VL with G33H, D34E, Y36F
notes: isotype not restated (path 2); also called H255,L217
In experiment [4], B24 showed a Kd of 0.144 nM, a koff of 0.000264 s⁻¹ and a kon of 1.83e+06 M⁻¹ s⁻¹.

B25: M164 (antibody, human IgG4, V domains shown)
VH: B22 VH with P53S
VL: B22 VL with A32V, D34T, Y36F
notes: also called H196,L222
B25: the Kd in experiment [3] was determined as 0.27 nM. That is a sub-nanomolar value.

B26: M670 (antibody, V domains shown)
VH: B7 VH with A53S, G56A, S61A, P62Q, S63K, Q65K
VL: B22 VL with D34E, Y36F
notes: isotype not restated (path 2); also called H257,L266
In experiment [4], B26 had a Kd of 0.065 nM, a koff of 0.000113 s⁻¹ and an on-rate (kon) of 1.73e+06 M⁻¹ s⁻¹.

B27: M153 (antibody, human IgG4, V domains shown)
VH: B22 VH
VL: B22 VL with A32V, D34T, Y36F
notes: also called H25,L222
In experiment [3], B27 came in with an equilibrium dissociation constant (Kd) of 1.41 nM.

B28: M669 (antibody, V domains shown)
VH: B22 VH with P53S, G56A, G62Q
VL: B22 VL with D34E, Y36F
notes: isotype not restated (path 2); also called H256,L266
On to B28, for which, in experiment [4], binding was put at a Kd of 0.058 nM, the dissociation rate constant (koff) was found to be 0.000145 s⁻¹ and the kon was 2.49e+06 M⁻¹ s⁻¹.

B29: M163 (antibody, human IgG4, V domains shown)
VH: B22 VH with P53S
VL: B22 VL with A32W, G33S, Y36F
notes: also called H196,L223
In turn, B29 gave a dissociation constant Kd in experiment [3] of 0.3 nM.

B30: M154 (antibody, human IgG4, V domains shown)
VH: B22 VH
VL: B22 VL with A32F, G33R, D34T, Y36F
notes: also called H25,L221
With B30, in experiment [3], the Kd came to 1.56 nM.

B31: M152 (antibody, human IgG4, V domains shown)
VH: B22 VH
VL: B22 VL with A32W, G33S, Y36F
notes: also called H25,L223
As for B31, the equilibrium dissociation constant (Kd) in experiment [3] came out at 1.54 nM.

B32: M673 (antibody, V domains shown)
VH: B22 VH with P53S, G56A, G62Q
VL: B22 VL with G33H, D34E, Y36F
notes: isotype not restated (path 2); also called H256,L217
For the molecule B32, in experiment [4], the Kd is 0.1 nM, the dissociation rate constant (koff) turned out to be 0.000189 s⁻¹ and the kon is 1.89e+06 M⁻¹ s⁻¹.

B33: M162 (antibody, human IgG4, V domains shown)
VH: B22 VH with P53S
VL: B22 VL with T20A, A32Y, G33N, D34S, Y36F
notes: also called H196,L224
The molecule B33 displayed a Kd in experiment [3] of 0.43 nM. That is a sub-nanomolar value.

B34: M161 (antibody, human IgG4, V domains shown)
VH: B22 VH with P53S
VL: B22 VL with A32F, Y36L
notes: also called H196,L218
As for B34, the equilibrium dissociation constant (Kd) in experiment [3] was determined as 1.34 nM.

B35: M150 (antibody, human IgG4, V domains shown)
VH: B22 VH
VL: B22 VL with A32F, Y36L
notes: also called H25,L218
B35 showed a Kd in experiment [3] of 4.04 nM.

B36: M165 (antibody, human IgG4, V domains shown)
VH: B22 VH with P53S
VL: B22 VL with A32F, G33R, D34T, Y36F
notes: also called H196,L221
On to B36, for which the dissociation constant (Kd) in experiment [3] was 0.18 nM.

By Kd is commonly meant the equilibrium constant for the complex coming apart. High values mean weaker binding, low ones tighter binding. The koff is a measure of how fast the partners let go of each other. The low end stands for slow dissociation, the high end for fast dissociation. Usually kon stands for the rate constant with which the complex forms. Read a low kon as slow association.
